In patent publication US20200131474A1, “METHODS AND COMPOSITIONS FOR OCULAR CELL THERAPY” (Novartis AG, priority 2018, published 2020):

Legend:
[1] = test system: YAP; experiment: Exposure of LSCs to LATS inhibitors, intracellular YAP distribution by immunohistochemistry; type: cell-based, human; conditions: 10 micromolar, 24 hours, compared with DMSO control; data not shown
Description: Research-consented cadaveric human corneas were obtained from eye banks. Limbal rims were dissected and partially dissociated in a 1.2 mg/ml dispase solution for 2 hours at 37° C. followed by 10 minutes in TrypLE (Life Technologies). Pieces of limbal crypts were then carefully cut out of the partially dissociated limbal rims and rinsed by centrifugation). Cells obtained in this manner were used in the Examples below.
Cells were cultured under these conditions for 24 hours at 37° C. in 5% CO2.
To measure the effect of the LATS inhibitors on the downstream target YAP, intracellular YAP distribution was analyzed by immunohistochemistry. Cell cultures were fixed with 4% PFA for 20 minutes, permeabilized and blocked in a blocking solution of 0.3% Triton X-100 (Sigma-Aldrich) and 3% donkey serum in PBS for 30 minutes. Cells were then labeled with primary antibody in the blocking solution for 12 hours at 4° C. Primary antibody used was anti-YAP from Santa Cruz Biotechnology. Samples were washed in PBS three times and donkey-raised secondary antibody Alexa Fluor 488 (Molecular Probes) at 1:500 dilution were applied for 30 minutes at room temperature. […] Fluorescence was observed using a Zeiss LSM 880 confocal microscope.

[2] = test system: phospho-YAP (ser127); experiment: Exposure of LSCs to LATS inhibitors, YAP phosphorylation by western blot; type: cell-based, human; conditions: 10 micromolar, 1 hour, DMSO as negative control
Description: The medium was then replaced by fresh limbal epithelium cell culture medium (DMEM F12 supplemented with 10% human serum and 1.3 mM calcium chloride) supplemented with LATS inhibitor compound example no. […] Cells were cultured under these conditions for 1 hour at 37° C. in 5% CO2.
To measure the effect of the LATS inhibitors on the downstream target YAP, the YAP phosphorylation levels were measured by western blot as follows. The cell pellets were obtained by trypsin dissociation and centrifugation and washed with PBS. The pellets were lysed with 30 microlitres of RIPA lysis buffer containing protease inhibitor cocktail (Life Technologies) for 30 minutes, with vortexing every 10 minutes. The cell debris were then pelleted at 4° C. for 15 minutes at 14 k rpm and the protein lysate was collected. Protein concentration was quantified using a micro BCA kit (Pierce). Fifteen micrograms of total protein was loaded in each well of 4-20% TGX gels (BioRad) and Western blotting was performed according to the manufacturer's instructions. […] Membranes were stained with HRP-conjugated secondary antibodies, rinsed and imaged using a ChemiDoc system (Biorad) according to the manufacturer's instructions.

[3] = test system: limbal stem cells; experiment: Human limbal stem cell population expansion, immunohistochemical observation of p63alpha phenotype; type: cell-based; conditions: for colony formation and p63alpha expression: 10 micromolar, 6 days after isolation without passaging, DMSO as negative control
Description: Cells were first cultured at 37° C. in 5% CO2 for 6 days after isolation without passaging (FIGS. 2A, 2B and 2C).
To evaluate the ability of the compounds to enable LSC expansion after two passages, LSCs were passaged and cultured for two weeks in the presence of compound example 3 to enable expansion (FIG. 2D). Limbal stem cells (LSCs) were passaged by treating cultures with Accutase for 10 minutes at 37° C., rinsing the cell suspension by centrifugation and plating cells in fresh LSC culture medium supplemented with LATS inhibitor compound example 3.
In order to observe that the expanded cell population expressed p63alpha, this was measured by immunohistochemistry as follows. Cell cultures were fixed with 4% PFA for 20 minutes, permeabilized and blocked in a blocking solution of 0.3% Triton X-100 (Sigma-Aldrich) and 3% donkey serum in PBS for 30 minutes. Cells were then labeled with primary antibody in the blocking solution for 12 hours at 4° C. Primary antibody used was p63alpha from Cell Signalling. Samples were washed in PBS three times and donkey-raised secondary antibody Alexa Fluor 488 (Molecular Probes) at 1:500 dilution were applied for 30 minutes at room temperature. Cells were counter-stained with a human nuclear antigen antibody (Millipore) at a 1:500 dilution in order to label all cells in the culture and confirm their human identity. […] Fluorescence was observed using a Zeiss LSM 880 confocal microscope.

[4] = test system: genomic DNA purified from male human peripheral blood mononuclear cells; experiment: Biochemical method for potential off-target genomic sites cleaved by Cas9 and B2M guides; conditions: guide concentration of 64 nM
Description: A biochemical method (See, e.g., Cameron et al., Nature Methods. 6, 600-606; 2017) was used to determine potential off-target genomic sites cleaved by Cas9 and selected B2M guides.

[5] = test system: potential off-target sites; experiment: Off-target activity detection in limbal stem cells by targeted PCR and NGS; type: cell-based, human; conditions: edited LSCs vs non-edited PBMCs; positive sites of sequenced loci
Description: Potential CRISPR/Cas9-mediated cutting sites identified above were evaluated using targeted PCR and NGS in genome-edited expanded LSCs.
Selected sgRNAs (SEQ ID NO: 120, 162, 166, 167, 171, and 175) were further analyzed by amplicon sequencing in edited and non-edited cells. Primers flanking the potential off-target sites for each guide were used to detect indels by NGS analysis in edited LSCs and non-edited peripheral blood mononuclear cells. Sites that had either (1) a difference in mean indel percentage between edited and unedited cells greater than 0.5%; or (2) a p value less than 0.05 between edited and unedited indel were further analyzed. NGS sequence reads for such sites were assessed for characteristic indel patterns near the putative Cas9 cut site.

CC(C)(O)CC(C)(C)Nc1nc(-c2ccncc2)nc2cnccc12 [Example 3, 2,4-dimethyl-4-{[2-(pyridin-4-yl)pyrido[3,4-d]pyrimidin-4-yl]amino}pentan-2-ol]
YAP immunostaining in the nucleus of LSCs [1]: stronger
YAP phosphorylation levels in human LSCs (Western blot) [2]: caused a reduction in YAP phosphorylation levels
YAP phosphorylation levels in human LSCs (Western blot) ([2]; listed as ex. 3): induce YAP dephosphorylation
colony formation and p63alpha expression [3]: the cells formed colonies and expressed p63alpha
cell population expansion after passaging, p63alpha expression ([3]; passaged and cultured for two weeks in the presence of compound): enabled cell population expansion and the formation of confluent cultures expressing p63alpha

Cc1n[nH]cc1-c1nc(NC2(C)CC2)c2ccncc2n1 [Example 4, 2-(3-methyl-1H-pyrazol-4-yl)-N-(1-methylcyclopropyl)pyrido[3,4-d]pyrimidin-4-amine]
YAP immunostaining in the nucleus of LSCs [1]: stronger
YAP phosphorylation levels in human LSCs (Western blot) ([2]; listed as ex. 4): induce YAP dephosphorylation
YAP phosphorylation levels in human LSCs (Western blot) ([2]; listed as example no. 4): caused a reduction in YAP phosphorylation levels
colony formation and p63alpha expression [3]: the cells formed colonies and expressed p63alpha

B1: CR000446: gRNA targeting B2M; targeting domain AGGGUAGGAGAGACUCACGC (SEQ ID NO: 136); sgRNA SEQ ID NO: 173 (nucleic acid)
guide: AGGGUAGGAGAGACUCACGCGUUUUAGAGCUAGAAAUAGCAAGUUAAAAUAAGGCUAGUCCGUUAUCAACUUGAAAAAGUGGCACCGAGUCGGUGCUUUU
modifications: listed as RNA, chemistry not given here
off-target Site_Count [4]: 98

B2: CR000442: gRNA targeting B2M; targeting domain GGCCACGGAGCGAGACAUCU (SEQ ID NO: 134); sgRNA SEQ ID NO: 171 (nucleic acid)
guide: GGCCACGGAGCGAGACAUCUGUUUUAGAGCUAGAAAUAGCAAGUUAAAAUAAGGCUAGUCCGUUAUCAACUUGAAAAAGUGGCACCGAGUCGGUGCUUUU
modifications: listed as RNA, chemistry not given here
off-target Site_Count [4]: 29
Number of sites positive for off-target activity in LSCs [5]: zero

B3: 6-HEYJA000001: gRNA targeting B2M; targeting domain GGCCGAGAUGUCUCGCUCCG (SEQ ID NO: 113); sgRNA SEQ ID NO: 164 (nucleic acid)
guide: GGCCGAGAUGUCUCGCUCCGGUUUUAGAGCUAGAAAUAGCAAGUUAAAAUAAGGCUAGUCCGUUAUCAACUUGAAAAAGUGGCACCGAGUCGGUGCUUUU
modifications: listed as RNA, chemistry not given here
off-target Site_Count [4]: 8

B4: 4-CR004366: gRNA targeting B2M (Dharmacon); targeting domain CAGUAAGUCAACUUCAAUGU (SEQ ID NO: 111); sgRNA SEQ ID NO: 162 (nucleic acid)
guide: CAGUAAGUCAACUUCAAUGUGUUUUAGAGCUAGAAAUAGCAAGUUAAAAUAAGGCUAGUCCGUUAUCAACUUGAAAAAGUGGCACCGAGUCGGUGCUUUU
modifications: listed as RNA, chemistry not given here
off-target Site_Count [4]: 92
Number of sites positive for off-target activity in LSCs [5]: zero

B5: 9-HEYJA000005: gRNA targeting B2M; targeting domain UCACGUCAUCCAGCAGAGAA (SEQ ID NO: 116); sgRNA SEQ ID NO: 167 (nucleic acid)
guide: UCACGUCAUCCAGCAGAGAAGUUUUAGAGCUAGAAAUAGCAAGUUAAAAUAAGGCUAGUCCGUUAUCAACUUGAAAAAGUGGCACCGAGUCGGUGCUUUU
modifications: listed as RNA, chemistry not given here
off-target Site_Count [4]: 35
Number of sites positive for off-target activity in LSCs [5]: zero

B6: CR000443: gRNA targeting B2M; targeting domain CGCGAGCACAGCUAAGGCCA (SEQ ID NO: 135); sgRNA SEQ ID NO: 172 (nucleic acid)
guide: CGCGAGCACAGCUAAGGCCAGUUUUAGAGCUAGAAAUAGCAAGUUAAAAUAAGGCUAGUCCGUUAUCAACUUGAAAAAGUGGCACCGAGUCGGUGCUUUU
modifications: listed as RNA, chemistry not given here
off-target Site_Count [4]: 117

B7: 8-HEYJA000004: gRNA targeting B2M; targeting domain ACUCACGCUGGAUAGCCUCC (SEQ ID NO: 115 in Table 10, 118 in Table 4); sgRNA SEQ ID NO: 166 (nucleic acid)
guide: ACUCACGCUGGAUAGCCUCCGUUUUAGAGCUAGAAAUAGCAAGUUAAAAUAAGGCUAGUCCGUUAUCAACUUGAAAAAGUGGCACCGAGUCGGUGCUUUU
modifications: listed as RNA, chemistry not given here
off-target Site_Count [4]: 62
Number of sites positive for off-target activity in LSCs [5]: zero

B8: CR000453: gRNA targeting B2M; targeting domain CACAGCCCAAGAUAGUUAAG (SEQ ID NO: 137); sgRNA SEQ ID NO: 174 (nucleic acid)
guide: CACAGCCCAAGAUAGUUAAGGUUUUAGAGCUAGAAAUAGCAAGUUAAAAUAAGGCUAGUCCGUUAUCAACUUGAAAAAGUGGCACCGAGUCGGUGCUUUU
modifications: listed as RNA, chemistry not given here
off-target Site_Count [4]: 82

B9: CR000455: gRNA targeting B2M; targeting domain UUACCCCACUUAACUAUCUU (SEQ ID NO: 138); sgRNA SEQ ID NO: 175 (nucleic acid)
guide: UUACCCCACUUAACUAUCUUGUUUUAGAGCUAGAAAUAGCAAGUUAAAAUAAGGCUAGUCCGUUAUCAACUUGAAAAAGUGGCACCGAGUCGGUGCUUUU
modifications: listed as RNA, chemistry not given here
off-target Site_Count [4]: 48
Number of sites positive for off-target activity in LSCs [5]: zero

B10: CR000456: gRNA targeting B2M; targeting domain CUUACCCCACUUAACUAUCU (SEQ ID NO: 139); sgRNA SEQ ID NO: 176 (nucleic acid)
guide: CUUACCCCACUUAACUAUCUGUUUUAGAGCUAGAAAUAGCAAGUUAAAAUAAGGCUAGUCCGUUAUCAACUUGAAAAAGUGGCACCGAGUCGGUGCUUUU
modifications: listed as RNA, chemistry not given here
off-target Site_Count [4]: 66
